Assay results from the supplement of paper PMC12764529.
± gives the half width of the 95% confidence interval.

Assays:
[1] = folding stability dG unfold from trypsin proteolysis; higher = more stable
Procedure: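 Folding stability of de novo designed mini-proteins (<80 aa, no Cys; designed by TrROS, TrMRF, ProteinMPNN and the joint model) was measured by cDNA display proteolysis with trypsin and chymotrypsin. Each protease was used at 11 concentrations in a threefold dilution series plus a no-protease condition. K50 was inferred by Bayesian fitting of sequencing counts, and dG unfold was derived against a sequence-predicted unfolded-state K50 (Tsuboyama et al. method). Sequences shown include variable-length N-terminal GS-type padding (SAGGSAGG...) inside a display construct carrying a PA tag. Rows were kept only if the AF2 dimer inter-PAE was >15, to exclude likely homo-oligomers.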

[2] = folding stability dG unfold (combined trypsin and chymotrypsin); higher = more stable
Procedure, shortened: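 Mini-proteins designed to be under 80 residues and free of cysteine were carried in a PA-tagged cDNA display construct and digested with trypsin and with chymotrypsin. Each protease was applied at 11 threefold-diluted concentrations, alongside a no-protease condition, before sequencing. K50 came from Bayesian fitting of the sequencing counts, and unfolding free energy was obtained by comparing it with a sequence-predicted unfolded-state K50 and a shared folded-state K50, for each protease separately or for both together. Designs were retained only if their AlphaFold2 dimer inter-PAE exceeded 15.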

| Sequence | folding stability dG unfold [1] [kcal/mol] | folding stability dG unfold [2] [kcal/mol] |
| --- | --- | --- |
| KTIEIMIPMEQMRNNKPIPADQFLKELAQEFGGPNVKPKVEPMPDNMMKATITLPNGRKIEITDPGAIKIKS [r1_168_TrROS] | -0.43 ± 0.57 | < -1 |
| MEEVTIEIEVKGLSEEEIKELAEKLAEELREAGYEVEITKVEVLPDGSVKVTIKVRKGMSEEELKKLLEKLS [r1_485_TrROS_Hall] | 3.65 ± 0.36 |  |
| SADFKPEGPSNNALVWKNPNSGKMFMIYPSDDNIEVQEIEYDPGNNKPEPETERVPLPEDDRDDLKDLLSAG [r14_245_TrROS] | -0.663 ± 0.14 | < -1 |
| SAGAGTVASPEEAEELVEELRAALPPEATITRDPTPEGGVRFTVRLPGEGRVLEMEFDPARDTTARRPESAG [r5_358_JUSTAS] | -0.391 ± 0.083 | < -1 |
| SAGGEPIKIKIDSVQEQPNPDGGPYLYVKITYPDGGRQTGMFDSPEDFKSQLEGEPGFKKIEIEPIRSAGGS [r16_757_TrROS] | -0.839 ± 0.52 | < -1 |
| SAGGGAEEEAKKIAEELEKIGGVKKVEVEVKPKPDDSVEVKVKVEFEPPKPPKPPVVELPENGELVFKSAGG [r13_957_TrMRF] | -0.0749 ± 0.21 | < -1 |
| SAGGGKIVFTEGYLLAEFPPTDLRVARPIPPDRPELALEEVADAFIAEMEAEFGFPPPEDVRVEVLASAGGS [r8_402_TrMRF] | 0.28 ± 0.058 | -0.0645 ± 0.2 |
| SAGGGMVERTETVTVPLSDVLAGRPPTPEAIAAARFPDTAEVTLETTEVPEDDTVTVTLTVRVPPELLSAGG [r13_862_JUSTAS] | 0.472 ± 0.069 | -0.0656 ± 0.21 |
| SAGGKVEIYNPNGQWKEITPEDLEGLKPGTIWQMPNGPVMIEIPGNDETIPIPMDSPNDIKDAIKDALSAGG [r13_962_TrROS] | 0.246 ± 0.066 | -0.183 ± 0.18 |
| SAGGMTIVKPSDGTPQFIEDEEAEKLVKELEEKGLLKKEKPGDITIPLPTVDPVTGKPRTTTITILPESSAG [r5_243_JUSTAS] | -0.962 ± 0.14 | < -1 |
| SAGGMVEIDPNPRVITVTDPSSSKVTKLNLPFPPDEVEKVTVLPDGTIAVYVPATGETIEVPLSELGSAGGS [r16_410_JUSTAS] | -0.136 ± 0.22 | -0.774 ± 0.33 |
| SAGGMVTVERGPENRVITITLPPSVPEKVDELAAKLGTDYVTTEPLPEGDLVRYTIYVPGDNPALLESAGGS [r16_479_JUSTAS] | 0.0152 ± 0.12 | -0.948 ± 0.41 |
| SAGGMVVRTPDGSTVEITVTDPASGSPYRSTDPGGGVEAAIAAINASPAYPNATVSITRYDAGTASPASAGG [r13_914_JUSTAS] | -0.286 ± 0.1 | -0.485 ± 0.16 |
| SAGGNWRPVERPIPIEPGMPPEEFIDEIADELPPGWRIDKPEPHPDNNYFKITVYDPNDGNQVEILFSAGGS [r16_250_TrROS] | 0.363 ± 0.15 | 0.122 ± 0.25 |
| SAGGPKLYIMIPPELRDNFPDIEIRPVEIPDDNIEIEIKFPGKKVTFPIYIFDPDGKIVEPQTITIEPSAGG [r13_129_TrROS] | 0.501 ± 0.076 | 0.226 ± 0.27 |
| SAGGPSAENLVEGDKVLLLIPLGDGPERRLELPLPDGRPVVVEVEPDRPGLITVTIPETGKPIVLPLSAGGS [r16_198_TrMRF] | -0.489 ± 0.086 | < -1 |
| SAGGSAEEKAKAIKEELEKKGEVKKVTVTIEPTPENSTKVTVEIEKEPKPKPKEYKYTELPNGKKVILSAGG [r13_957_JUSTAS] | -0.416 ± 0.12 | < -1 |
| SAGGSAEKPTATLRPVVLNYPEGPISRDPSGNVVNSPEELAKEVKEEILKKTGLPVEEIVVLVEPPSAGGSA [r15_415_JUSTAS] | -0.739 ± 0.061 | < -1 |
| SAGGSAGGAEELAEELERALPEGEVTEVRVEVVELPEGEPEVVVTVRVKRDGKEVKELPVIRVPSAGGSAGG [r6_630_TrROS_Hall] | -0.492 ± 0.16 | -0.997 ± 0.44 |
| SAGGSAGGAVPSYIKDIETIPETSALIVNAESEEIVKEFLEKLGLKIESKEVDEDKIILPAKIESAGGSAGG [r6_381_JUSTAS] | 0.774 ± 0.099 | 0.0269 ± 0.35 |
| SAGGSAGGEKKYEVVEKKELTLEDIEKADEILVVGKDGKVFKSRDDVKAAAEKGEKITVYVVKKSAGGSAGG [r6_827_TrROS_Hall] | 0.0471 ± 0.46 | < -1 |
| SAGGSAGGEPITPEEAREIADYFMEEHGAKEVEVKVDPNGGIIKIDVTHPNDGRKYEREIQIEKSAGGSAGG [r6_550_TrROS] | 0.142 ± 0.13 | < -1 |
| SAGGSAGGMSISTEQEGGKITVTDSSPGTPIAELPPDVEKEVETPVIPPPPPLYRLFLPGTVLVSAGGSAGG [r6_40_JUSTAS] | -0.94 ± 0.48 | < -1 |
| SAGGSAGGMTAEEVAEWIADEFMENHPNIEIKPVATEDGEVKIDIRHPNSGMTHTFKIPPGQPLSAGGSAGG [r6_446_TrROS] | -0.796 ± 0.19 | < -1 |

| Sequence | folding stability dG unfold [1] [kcal/mol] | folding stability dG unfold [2] [kcal/mol] |
| --- | --- | --- |
| SAGGSAGGMVEHVVTVPPSQVEEVIEEAKPKPVVEVKVEKVPGRDEVVVTMKYEIPEEELLKKLSAGGSAGG [r6_273_JUSTAS] | -0.704 ± 0.084 | < -1 |
| SAGGSAGGMVPITDLTVDSEEFVLPTGGVATRETITRPATGLVYEKVVFTPKPGVVEQREVALLSAGGSAGG [r6_895_JUSTAS] | -0.471 ± 0.12 | < -1 |
| SAGGSAGGNPEDKERRYVRMPIKVTVPNPNGKKIKIPIYMPVGDPERMMPRAIKFARELAKKGLSAGGSAGG [r6_903_TrROS] | -0.301 ± 0.7 | < -1 |
| SAGGSAGGPPDDVEPEEFTFRFGDKPIKVEILRVNPDNNNIMIKHESNGKPKTMMFPPEDLEKLSAGGSAGG [r6_421_TrROS] | -0.129 ± 0.29 | -0.0461 ± 0.25 |
| SAGGSAGGPVTVVPVVTPADVPVLTTPGGAPARPASRPDLVRPVASTVTVTITPAPAAPTVTVLSAGGSAGG [r6_537_JUSTAS] | 0.857 ± 0.038 | 0.135 ± 0.12 |
| SAGGSAGGPYMVMIRMPNNPQPIWFPPDEVKEALKEGDEKRIKFPGGGMEMTIRNVDDIEIMPPSAGGSAGG [r6_509_TrROS] | -0.793 ± 0.58 | < -1 |
| SAGGSAGGSAALGDESLHRPVPVVSTSPVTTTTTLTLTPPNGVTVTESVTTTTTVYGSGAASAGGSAGGSAG [r3_380_JUSTAS] | 0.553 ± 0.025 | 0.172 ± 0.13 |
| SAGGSAGGSADIELLGESVDPATGRSSKTFQAPGKIIVETTAPDGTKTTSVVDPNSNVTIPLSAGGSAGGSA [r18_230_JUSTAS] | -0.522 ± 0.11 | < -1 |
| SAGGSAGGSAESIDAKVTPVALPSGPRYLIEVNNPAAPEIPKSVVEEELAKKYPKERVELLSAGGSAGGSAG [r3_226_JUSTAS] | -0.516 ± 0.1 | < -1 |
| SAGGSAGGSAGEPIRVRIENPPGGQRKITIPTDDLQEKGITPKDIAKKLAREFGWPIEVWSAGGSAGGSAGG [r11_829_TrROS] | 0.257 ± 0.3 | < -1 |
| SAGGSAGGSAGGDAILIEVESPEDAVEAARELAEKEFGIDPENFPINVVVDEPDGKALIASAGGSAGGSAGG [r7_387_TrMRF] | 0.743 ± 0.019 | -0.404 ± 0.25 |
| SAGGSAGGSAGGDPVTVLSIKPEPGKLTVTTNTRADGSTTTTTVSPENPPNIKPGEPLSSAGGSAGGSAGGS [r10_834_JUSTAS] | 0.552 ± 0.04 | 0.109 ± 0.18 |
| SAGGSAGGSAGGEVEVPKDASLVVTYPNGERKEVPVEDKVPVKGLPVYLLGPDGTLREIDSAGGSAGGSAGG [r7_54_TrMRF] | 0.294 ± 0.18 | < -1 |
| SAGGSAGGSAGGFVEKYPDGVIVEKDPNNDSGTVKKVTTTKDPNTNKPTSKVTVTPISKLSAGGSAGGSAGG [r7_181_JUSTAS] | -0.844 ± 0.2 | < -1 |
| SAGGSAGGSAGGGESAAPVVATTVSEEVFEEPGGTVIRRYTVTTPAATTTLSTEVLPPLLSAGGSAGGSAGG [r7_43_JUSTAS] | -0.25 ± 0.17 | < -1 |
| SAGGSAGGSAGGGMTTVTIEVPPELSEEEVRRAAAELVAAGRPVPVTVERLPEDRVVVVTSAGGSAGGSAGG [r7_283_JUSTAS] | 0.68 ± 0.021 | -0.0348 ± 0.082 |
| SAGGSAGGSAGGGPSVAPFEVTELLSVSYVPGPRRFVAVVRLPDPERLVVVPVEDLPPGQSAGGSAGGSAGG [r7_304_TrMRF] | -0.941 ± 0.41 | < -1 |
| SAGGSAGGSAGGHIVIPNKRWYIQFPNGKPIGEHRFDTAEDIAKELPPNMRIVPPGDPISAGGSAGGSAGGS [r10_310_TrROS] | 0.281 ± 0.32 | < -1 |
| SAGGSAGGSAGGHPVRVRITWPDGQQRTIPIPVDPENGQVTLEEIAKTISPEHGWKIEVFSAGGSAGGSAGG [r7_492_TrROS] | -0.107 ± 0.2 | -0.638 ± 0.51 |
| SAGGSAGGSAGGITPEEIEKIREAPLPNGAPIKDVFVEGDYAVVLFETEPDLYLIVIPNKSAGGSAGGSAGG [r7_995_TrMRF] | -0.121 ± 0.12 | -0.907 ± 0.57 |
| SAGGSAGGSAGGKITIVVSASSPEEAKRFVGELKALGPADIKVIVVPAPKPLPADDPRAKSAGGSAGGSAGG [r7_261_TrMRF] | -0.177 ± 0.21 | < -1 |
| SAGGSAGGSAGGKKKVKVGNKEVEIVKEEEKEGKLIIKDKKTGKKIEISKEDLKKKKIKLSAGGSAGGSAGG [r7_391_TrROS_Hall] | -0.42 ± 0.52 | < -1 |
| SAGGSWIPVEEIAENFPNVEVNTHPNGNIMVRFTHKRKKPNGGKKKHNMTVQLDPEDGRLQSIHPYSAGGSA [r2_104_TrROS] | -0.0297 ± 0.48 |  |
| SKPGDKLEEVTIKIYNPGNGRPREITIEKHEDGWRAQVMNPPGQTKEIPPNDTLEDLLNLPPNYYIEIIPSA [r9_781_TrROS] | -0.271 ± 0.2 |  |
